Results on 1 molecule are retold here after article PMC11617691, “‘GGFGGQ’ repeats in Hfq of Acinetobacter baumannii are essential for nutrient utilization and virulence”.

In one data set the target is T1, Hfq WT (Acinetobacter baumannii, UniProt V5VC31 1-168).
T1 sequence: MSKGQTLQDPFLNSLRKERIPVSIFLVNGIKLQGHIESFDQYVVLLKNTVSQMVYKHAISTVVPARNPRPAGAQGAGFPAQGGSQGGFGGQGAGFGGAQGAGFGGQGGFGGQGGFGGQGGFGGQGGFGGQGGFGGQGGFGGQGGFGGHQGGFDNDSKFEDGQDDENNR
In words: fluorescence anisotropy; Kd printed only in figure; TNK buffer: 10 mM Tris-HCl pH 7.5, 50 mM NaCl, 50 mM KCl; 50 nM D16-FAM; 30 °C; 100 µl. The following applies: protein: recombinant; tags: none (tag-free, stop codon in pET-28); chain copies: 6; label: 5'-FAM. A general note: Fluorescence polarisation rises when a labelled molecule tumbles more slowly, as on binding a larger partner.

For the next data set, the target named is T2, Hfq66 (Acinetobacter baumannii, UniProt V5VC31 1-66).
T2 sequence: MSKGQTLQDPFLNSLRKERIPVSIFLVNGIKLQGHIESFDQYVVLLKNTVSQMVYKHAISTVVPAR
In words: fluorescence anisotropy; higher affinity (lower Kd) than WT; Kd printed only in figure; TNK buffer: 10 mM Tris-HCl pH 7.5, 50 mM NaCl, 50 mM KCl; 50 nM D16-FAM; 30 °C; 100 µl. Conditions: protein: recombinant; tags: none (tag-free); chain copies: 6; label: 5'-FAM.

B1: D16-FAM (ssRNA)
RNA: CGAAUUUUUUAAGUGC
B1: the binding result with Hfq WT and in the data set with Hfq66 was “binds” throughout.
